Patent US6471689B1, “Implantable drug delivery catheter system with capillary interface” (Thomas Jefferson University, priority 1999, dated 2002)

Assay: Human insulin infusion via implanted drug delivery catheter system (DDCS) in rats, plasma insulin and glucose versus time
Type: in vivo
Details: for Time at which blood insulin levels peaked post infusion: human insulin 10 milliU/kg/min, 20 weeks post implantation
Text: The devices were implanted in 4 rats weighing ˜350 gm. Each animal was implanted with 2 devices: a mesenteric DDCS, implanted within the loose connective tissue of the bowel mesentery, and a subcutaneous DDCS implanted in the dorsal subcutaneous loose connective tissue. Catheters were primed with saline and proximal ends sealed. Catheters were then coiled and secured within the abdominal and subcutaneous spaces, respectively. There were no perioperative surgical complications and all 4 animals increased to a mean weight of 592±83 gm by 20 weeks.
The proximal portion of the catheters was exteriorized at 20-weeks post implantation and human insulin infusions were started at 10 milliU/kg/min with infusion rates of 60 μL/hr after careful determination of catheter dead space volume. Two animals were randomly assigned to receive insulin via mesenteric DDCS and two animals received infusions via subcutaneous DDCS. When the infusion was terminated, depth of anesthesia was increased and DDCS and surrounding tissue were explanted and immediately immersed in 10% buffered formalin for histological analysis. Tissue specimens were embedded in paraffin and 7-10 microns sections were prepared for H and E stains.

insulin
Time at which blood insulin levels peaked post infusion (mesenteric DDCS): ≤ 5 min | Blood glucose concentrations during insulin infusion (mesenteric and subcutaneous DDCS, 10 milliU/kg/min, measured at 5, 15, 30 min, not fasted, isoflurane anesthesia): decreased in proportion to increasing insulin concentrations | Time at which blood insulin levels peaked post infusion (subcutaneous DDCS): ≤ 5 min
